# According to paper PMC3988316 (Cell, 2013):
# No end group written: not given here. cellulose‑PEG membrane = cellulose-PEG membrane solid support to which peptides are linked at the C-terminus as "dots"
# Biological target: N-terminally flag-tagged full-length S. cerevisiae Ubr1 (S. cerevisiae, UniProt P19812 1-1950)
# Experiment: peptide or protein array
# N-terminally flag-tagged full-length S. cerevisiae Ubr1, sequence (P19812 whole entry): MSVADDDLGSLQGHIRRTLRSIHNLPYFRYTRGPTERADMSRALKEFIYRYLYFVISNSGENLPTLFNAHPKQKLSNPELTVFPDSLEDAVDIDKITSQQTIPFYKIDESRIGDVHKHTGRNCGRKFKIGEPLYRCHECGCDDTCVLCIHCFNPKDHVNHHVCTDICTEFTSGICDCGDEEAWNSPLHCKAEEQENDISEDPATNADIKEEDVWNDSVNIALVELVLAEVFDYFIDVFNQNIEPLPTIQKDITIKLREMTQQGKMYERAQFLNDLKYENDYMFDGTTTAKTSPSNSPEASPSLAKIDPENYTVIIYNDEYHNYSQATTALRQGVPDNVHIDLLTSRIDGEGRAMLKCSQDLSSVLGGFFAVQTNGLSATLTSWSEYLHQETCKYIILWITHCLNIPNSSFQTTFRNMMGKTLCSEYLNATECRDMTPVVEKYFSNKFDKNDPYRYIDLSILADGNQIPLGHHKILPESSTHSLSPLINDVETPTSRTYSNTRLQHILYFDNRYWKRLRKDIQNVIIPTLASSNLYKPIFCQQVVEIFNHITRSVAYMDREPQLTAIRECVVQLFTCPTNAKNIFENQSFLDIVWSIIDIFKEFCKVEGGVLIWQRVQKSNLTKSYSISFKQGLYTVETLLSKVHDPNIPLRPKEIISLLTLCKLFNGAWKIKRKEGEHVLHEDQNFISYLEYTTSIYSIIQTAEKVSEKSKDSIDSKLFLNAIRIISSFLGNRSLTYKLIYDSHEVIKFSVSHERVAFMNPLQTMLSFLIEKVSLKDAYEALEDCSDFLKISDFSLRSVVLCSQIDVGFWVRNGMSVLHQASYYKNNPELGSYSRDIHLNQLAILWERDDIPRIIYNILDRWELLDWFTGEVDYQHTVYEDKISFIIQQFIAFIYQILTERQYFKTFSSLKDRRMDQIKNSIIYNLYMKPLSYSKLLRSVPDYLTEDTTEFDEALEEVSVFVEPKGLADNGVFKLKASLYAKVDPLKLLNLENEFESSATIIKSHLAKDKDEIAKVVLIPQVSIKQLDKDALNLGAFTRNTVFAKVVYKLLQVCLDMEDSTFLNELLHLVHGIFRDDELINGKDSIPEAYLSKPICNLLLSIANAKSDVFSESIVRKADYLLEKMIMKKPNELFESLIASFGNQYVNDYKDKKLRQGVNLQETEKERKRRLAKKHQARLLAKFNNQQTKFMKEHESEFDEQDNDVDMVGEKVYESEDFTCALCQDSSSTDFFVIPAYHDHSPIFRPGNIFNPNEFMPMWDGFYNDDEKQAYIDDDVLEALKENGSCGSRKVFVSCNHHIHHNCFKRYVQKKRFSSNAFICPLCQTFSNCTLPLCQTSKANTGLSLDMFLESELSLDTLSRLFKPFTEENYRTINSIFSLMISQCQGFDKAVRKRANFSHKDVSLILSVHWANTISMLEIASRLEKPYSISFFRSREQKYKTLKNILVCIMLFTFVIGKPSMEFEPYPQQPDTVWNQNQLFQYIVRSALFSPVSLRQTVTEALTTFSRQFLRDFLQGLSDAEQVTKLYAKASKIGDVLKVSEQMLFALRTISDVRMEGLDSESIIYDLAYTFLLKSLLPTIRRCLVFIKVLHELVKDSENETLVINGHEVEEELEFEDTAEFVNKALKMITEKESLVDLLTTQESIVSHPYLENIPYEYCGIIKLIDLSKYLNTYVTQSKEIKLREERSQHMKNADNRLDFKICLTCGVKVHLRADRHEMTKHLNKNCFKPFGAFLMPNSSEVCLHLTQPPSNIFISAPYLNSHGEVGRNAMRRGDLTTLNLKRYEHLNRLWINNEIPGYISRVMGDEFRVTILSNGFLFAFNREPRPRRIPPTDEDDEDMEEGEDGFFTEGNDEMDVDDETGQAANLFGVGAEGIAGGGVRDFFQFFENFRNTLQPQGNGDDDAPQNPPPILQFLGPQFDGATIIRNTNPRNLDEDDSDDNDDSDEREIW
row,Binder,binding result
1,MVGSGAWLLP-{cellulose‑PEG membrane} [Met-Val-e^K(3–10) peptide],binds
2,MWGSGAWLLP-{cellulose‑PEG membrane} [Met-Trp-e^K(3–10) peptide],binds
3,MFGSGAWLLP-{cellulose‑PEG membrane} [Met-Phe-e^K(3–10) peptide],binds
4,MYGSGAWLLP-{cellulose‑PEG membrane} [Met-Tyr-e^K(3–10) peptide],binds

# Now from value to binder:
row,binding result,Binder
1,binds,MIGSGAWLLP-{cellulose‑PEG membrane} [Met-Ile-e^K(3–10) peptide]
2,binds,MAGSGAWLLP-{cellulose‑PEG membrane} [Met-Ala-e^K(3–10) peptide]
